B1: library; numbered along this chain (parent)
chain: MAAAGGARLLRAASAVLGGPAGRWLHHAGSRAGSSGLLRNRGPGGSAEASRSLSVSARARSSSEDKITVHFINRDGETLTTKGKVGDSLLDVVVENNLDIDGFGACEGTLACSTCHLIFEDHIYEKLDAITDEENDMLDLAYGLTDRSRLGCQICLTKSMDNMTVRVPETVADARQSIDVGKTS

Variants of: B1
Test: scaled log2 fold change in cell abundance, elesclomol vs control (0 = silent mean, 1 = nonsense mean) (scaled log2 ratio); higher = higher viability under elesclomol (loss of FDX1 cuproptosis function)
Details: glucose 10 mM
[1] = with ABC1 FDX1 KO, elesclomol 5 nM, 14 days
[2] = with HEK293T FDX1 KO, elesclomol 40 nM, 11 days
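Also: variant abundance is its share of total variant reads in each endpoint sample, from next-generation sequencing of the integrated ORF PCR-amplified out of genomic DNA.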

Variant	scaled log2 fold change [1]	scaled log2 fold change [2]
G143K	-1.13	0.329
G143E	-0.312	-0.391
G143P	0.108	-0.153
G143Q	-0.167	0.225
G143M	0.337	-0.813
G143D	0.242	0.59
G143W	-0.202	-0.602
G143N	-0.705	0.0112
G143F	-0.335	0.343
G143S	-0.338	0.106
G143H	-0.162	-0.302
G143Y	0.0128	0.695
G143C	-0.043	0.0676
G143I	-0.102	-0.507
G143V	0.0102	-0.395
G143L	-0.0816	0.114
G143T	0.153	-1.08
G143R	0.384	-1.11
G143A	0.189	1
L144R	0.343	0.505
L144P	0.386	0.307
L144S	-0.409	0.564
L144A	0.157	-0.304
L144I	0.399	-0.124

Variant	scaled log2 fold change [1]	scaled log2 fold change [2]
L144C	0.106	-0.265
L144H	-0.0895	-0.335
L144N	0.342	-0.655
L144W	-0.112	-0.217
L144G	-0.079	-0.323
L144Q	0.137	-1.45
L144F	-0.293	1.23
L144T	0.135	-0.511
L144M	0.249	-0.887
L144E	0.116	0.0837
L144V	-0.402	-0.057
L144D	0.171	-0.877
L144Y	-1.21	-0.239
L144K	0.175	-0.503
R149Q	0.899	1.02
R149P	1.05	0.985
R149C	0.906	1.99
R149F	0.872	1.08
R149M	0.689	0.499
R149G	0.658	0.436
R149E	1.13	1.11
R149S	0.96	0.508
R149I	0.876	0.53
R149W	1.07	1.1

Variant	scaled log2 fold change [1]	scaled log2 fold change [2]
R149D	1.08	0.943
R149A	0.375	0.982
R149N	1	1.05
R149H	0.625	0.597
R149V	0.231	0.529
R149T	1.01	0.998
R149K	0.66	-0.00324
R149Y	0.871	0.839
R149L	0.679	0.937
Y142L	-0.24	-0.251
Y142N	-0.329	–
Y142D	-0.228	1.12
Y142V	-0.226	-0.606
Y142T	-0.197	0.583
Y142E	-0.1	-0.695
Y142G	-0.302	-0.393
Y142H	-0.0863	0.947
Y142M	-0.877	-0.0122
Y142W	-0.245	0.733
Y142A	-0.39	–
Y142K	0.0326	–
Y142P	-1.37	–
Y142Q	-0.102	-0.021
Y142S	-0.293	-1.45

Variant	scaled log2 fold change [1]	scaled log2 fold change [2]
Y142R	0.172	-1.11
Y142I	-0.441	–
Y142F	0.0438	0.876
Y142C	0.285	-0.427
C152I	1.12	1.09
C152L	1.14	1.41
C152M	1.16	0.861
C152N	1	2.21
C152S	1.17	1.18
C152K	1.05	0.942
C152A	1.22	1.33
C152Y	1.15	1.64
C152V	1.23	1.12
C152F	1.1	2.08
C152W	1.13	1.28
C152G	1.06	1.28
C152H	1.12	0.972
C152R	1.08	1.5
C152E	1.03	1.1
C152Q	1.01	1.18
C152P	1.08	1.13
C152T	1.06	1.22
C152D	1.1	1.19
R147H	-0.0226	-0.215

Variant	scaled log2 fold change [1]	scaled log2 fold change [2]
R147K	-0.354	-0.267
R147S	-0.721	-0.596
R147A	0.283	–
R147W	0.275	-0.126
R147M	0.167	-0.232
R147G	-0.409	0.00185
R147D	0.339	0.314
R147L	-1.37	-0.851
R147E	0.159	-0.255
R147P	0.35	-0.0221
R147T	-0.344	-0.0355
R147Q	0.0113	-0.0201
R147V	0.177	0.544
R147C	-0.148	0.356
R147I	0.215	-0.172
R147N	0.171	0.904
R147F	0.104	-0.384
R147Y	0.159	0.243
T145G	0.132	1.06
T145L	0.169	0.152
T145P	0.209	-0.123
T145A	-0.6	0.187
T145M	0.318	-0.375
T145R	0.0604	-0.726

Variant	scaled log2 fold change [1]	scaled log2 fold change [2]
T145K	-0.0518	-0.472
T145F	-0.258	-0.0341
T145Y	0.224	0.0425
T145D	-0.00306	-0.25
T145N	0.291	-0.855
T145S	0.00135	–
T145H	-0.157	-0.272
T145C	-0.124	-0.351
T145W	0.478	-0.147
T145E	-0.0343	-0.344
T145V	0.027	-0.443
T145Q	0.226	-1.28
T145I	0.244	-0.228
Q153K	0.016	0.139
Q153I	0.0471	-0.458
Q153C	-0.163	-0.668
Q153L	0.241	-0.00657
Q153H	0.41	-0.0151
Q153F	0.595	0.361
Q153G	0.48	-0.652
Q153E	0.283	1.2
Q153A	0.0247	-0.209
Q153D	0.674	0.615
A141Q	0.09	0.9

Variant	scaled log2 fold change [1]	scaled log2 fold change [2]
A141T	0.135	0.788
A141V	0.00876	0.0536
A141I	-0.168	0.617
A141M	-0.0992	0.123
A141P	0.46	-0.803
A141K	0.122	-0.0127
A141H	0.134	-0.527
A141L	-0.402	–
A141R	0.0996	0.0982
A141W	-0.0378	-0.209
A141N	-0.0904	0.596
A141G	-0.119	0.016
A141Y	-0.374	-0.341
A141S	-0.0824	0.987
G151F	1.04	1.32
G151A	0.241	0.25
G151P	1.03	1.12
G151T	0.645	0.96
G151Q	1.11	1.05
G151N	1.12	1.08
G151Y	1.15	1.08
G151W	1.06	1.38
G151S	0.0704	-0.359
G151V	0.707	-0.147

Variant	scaled log2 fold change [1]	scaled log2 fold change [2]
G151L	1	0.743
G151C	0.338	-0.416
G151I	1.07	0.797
G151R	1.11	0.946
G151E	1.06	1.01
G151K	1.04	0.728
G151D	1.22	1.19
G151M	1.01	1.15
G151H	1.27	1.31
D146W	0.114	0.978
D146K	0.0568	-0.151
D146H	-0.228	-0.639
D146R	-0.0353	–
D146Q	-0.0405	-0.462
D146I	-0.109	0.0633
D146V	-0.227	-0.76
D146S	-0.00471	0.0302
D146T	0.301	-0.841
D146M	-0.332	–
D146A	0.0826	-0.539
D146N	-0.093	0.538
D146L	0.0782	-0.302
D146G	-0.311	0.974
D146P	-0.219	0.177

Variant	scaled log2 fold change [1]	scaled log2 fold change [2]
D146E	0.138	0.321
D146C	0.0801	0.758
D146Y	0.1	0.0545
D146F	-0.0311	0.866
L150K	1.24	1.51
L150H	0.563	-0.201
L150I	0.2	-0.337
L150P	1.09	0.82
L150T	0.595	-0.16
L150Q	0.537	0.364
L150A	0.335	0.397
L150W	1.06	1.11
L150M	-0.0616	-0.103
L150G	0.757	0.513
L150C	-0.0973	0.196
L150D	1.09	0.982
L150F	0.244	-0.211
L150R	1.05	0.41
L150S	0.479	0.331
L150V	0.447	-0.147
L150N	0.899	0.249
L150Y	0.721	0.392
L150E	0.981	1.27
S148M	0.0932	0.216

Variant	scaled log2 fold change [1]	scaled log2 fold change [2]
S148F	0.404	0.537
S148Q	0.313	0.39
S148C	0.0537	0.319
S148E	0.489	1.23
S148K	0.496	-0.0219
S148N	0.122	0.397
S148Y	0.363	-0.279
S148L	0.386	0.434
S148T	0.485	0.124
S148A	-0.395	0.0871
S148D	0.488	0.491
S148H	0.322	-0.35
S148I	0.277	1.81
S148V	0.0179	0.35
S148R	0.331	0.333
S148G	-0.0749	-0.519
S148P	0.532	0.268
S148W	0.632	0.172
